Target: Human EGFR JM-kinase construct (JM-A and JM-B, residues 645-998) (human)
Test: static light scattering

stoichiometry N: 2
Substance: Human EGFR JM-kinase construct (JM-A and JM-B, residues 645-998) (domain or fragment)
